Source: the RNAGym collection of RNA variant scans (doi:10.1073/pnas.2313332121)

B1: TPR t1 (parent)
chain: GACCAAUCUGCCCUCAGAGCUCGAGAACAUCUUCGGAUGCAGAGGAGGCAGGCUUCGGUGGCGCGAUAGCGCCAACGUCCUCAACCUCCAAUGCAUCCCACCACAUGAUGAUGCCUGAAGAGCCUUGGUUUUUUG

Variants of: B1
Assay: polymerase ribozyme fitness, log enrichment relative to wild type (log ratio); higher = more active; in vitro selection for triplet polymerase activity
In short: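 Mutant libraries were PCR-built and transcribed for each subunit of a heterodimeric triplet polymerase ribozyme and selected for one round in triplicate at −7 °C, frozen, before gel excision of extended constructs and streptavidin-bead capture. Input and output libraries were Illumina-sequenced, keeping genotypes with ≥10 input reads and ≥1 read per output. Fitness is a logarithmic ratio of genotype to wild-type enrichment, in base 2, using inverse-variance-weighted replicate averages.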
With GACCAAUCUGCUCUCAGAGCUCGAGAACAUCUUCGGAUGCAGAGGAGACAGGCUUCGGUGGCGCGAUAGCGCCAACGUCCUCAACCUCCAAUGCAUCCCACCACAUGAUGAUGCCUGAAGAGCCUUGGUUAUUUG the “polymerase ribozyme fitness (log ratio)” value was -0.967.
In the case of GACCAAUCUGCUCUCAGAGCUCGAGAACAUCUUCGGAUGCAGAGGAUGCAGGCUUCGGUGGCGCGAUAGCGCAAACGUCCUCAACGUCCAAUGCAUCCCACCACAUGAUGAUGCCUGAAGAACCUUGGUUUUUUG, the “polymerase ribozyme fitness (log ratio)” value is reported as -0.298.
With GACCAAUCUGCUCUCAGAGCUCGAGAACAUCUUCGGAUGCAGAGGAGGCAGGCUUCGGUGGCGCGAUAGCGCCAACGUCCUCAACCUCCAAUGCAUCCCACCACAUGAUGAUGCCUGAAGAGCCUUGAUUUUUUG the “polymerase ribozyme fitness (log ratio)” value was -1.59.
In the case of GACCAAUCUGCUCUCAGAGCUCGAGAACAUCUUCGGAUGCAGAGGAGACAUGCUUAGGUGGCGCGAUAGCGCCAACGUCCUCAACCUCCAAUGCAUCCCACCACAUGAUGAUGCCUGAAGAGCCUUGGUUUUUUG, the “polymerase ribozyme fitness (log ratio)” value is reported as -2.84.
In the case of GACCAAUCUGCUCUCAGAGCUCGAGAACAUCUUCGGAUGCAGAGGAGGCAGGCUUCGGUGGCGCGAUACCGCCAACGUCCCCAACCUCCAAUGCAUCCCACCACAUGAUUAUGCCUGAAGAGCCUUGGUUUUUUG, the “polymerase ribozyme fitness (log ratio)” value is reported as -3.57.
For GACCAAUCUGCUCUCAGAGCUCGAGAACAUCUUCGGAUGCAGAGGAGGCAGGCUUCGGUGGCGCGAUAGCGCCAACGUCCUCAACCUCCAAUGCAUCCCACCACAUGAUGAUGCCUUAAGAGCCUUGGUUUUUUG, the “polymerase ribozyme fitness (log ratio)” value was 0.316.
With GACCAAUCUGCUCUCAGAGCUCGAGAACAUCUUCGGAUGCAGAGGAGGCAGGCUUCGGUGGCGCGAUAGCGCCAACGUCCUCAACCUCCAAUGCAUCCCACCACAUGAUGAUGCCUCAAGAGCCUUGGUUUUUUG the “polymerase ribozyme fitness (log ratio)” value was -1.68.
For GACCAAUCUGCUCUCAGAGCUCGAGAACAUCUUCGGAUGCAGAGGAGGCAGGCUUCGGUGGCUCGAUAGCGCCAACGUCCUCAAGCUACAAUGCAUCCCACCACAUGAUGAUGCCUGAAGAGCCUUGGUUUUUUG, the “polymerase ribozyme fitness (log ratio)” value was -4.33.
With GACCAAUCUGCUCUCAGAGCUCGAGAACAUCUUCGGAUGCAGAGGAGGCAGGCUUCGGUGCCGCGAUAGCGCCAACGUCCUCAACCUCCAAUGCAUCCCACCACAUGAUGAUGCCUGAAGAGCCUUGGUUUUUUG the “polymerase ribozyme fitness (log ratio)” value was -1.48.
For GACCAAUCUGCUCUCAGAGCUCGAGAACAUCUUCGGAUUCAGAGGAGGCAGGCUUCGGUGGCGCGAUAGCGCCAACGUCCUCAACCUCCAAUGCAUCCCACCACAUGAUGAUUCCGGAAGAGCCUUGGUUUUUUG, the “polymerase ribozyme fitness (log ratio)” value was -5.84.
With GACCAAUCUGCUCUCAGAGCUCGAGAACAUCUUCGGAUGCAGAGGAGGCAGGCUUCGGUUGCGCGAUAGCGCCAACGUCCUCAACCUCCAAUGCAUCCCACCACAUGAUGAUGCCUGAAGAGCCUUGGUUUUUUG the “polymerase ribozyme fitness (log ratio)” value was 0.415.
In the case of GACCAAUCUGCUCUCAGAGCUCGAGAACAUCUUCGGAUGCAGAGGAGGCAGGCUUCGGUGGCGCGAUAGCGCCAACGUCCUCAACCUCCAAUGCAUCCCACCACAUGAAGAUGCCUGAAGAGCCUUGGUUUUUUG, the “polymerase ribozyme fitness (log ratio)” value is reported as -3.34.
With GACCAAUCUGCUCUCAGAGCACGAGAACGUCUUCGGAUGCAGAGGAGGCAGGCUUCGGUGGCACGAUAGCGCCAACGUCCUCAACCUCCAAUGCAUCCCACCACAUGAUGAUGCCUGAAGAGCCUUGGUUUUUUG the “polymerase ribozyme fitness (log ratio)” value was -2.72.
In the case of GACCAAUCUGCUCGCAGAGCUCGAGAACAUCUUCGGAUGCAGAGGAGGCAGGCUUCGGUGGCGCGAUAGCGCCAACGUUCUCAACCUCCAAUGCAUCCCACCACAUGAUGAUGCCUGAAGAGCCUUGGUUUUUUG, the “polymerase ribozyme fitness (log ratio)” value is reported as 0.109.
For GACCAAUCUGCUCUCAGAGCUCGAGAACAUCUUCGGAUGCAGAGGAGGCAGGCUUCGGUGGCGCGAUAGCGCCAACGUCCUCAACCUCCAAUGCAUCCCACCACAUGAUGAUGCCUGAAGAACCUUGGUUUUUUG, the “polymerase ribozyme fitness (log ratio)” value was -0.00508.
With GACCAAUCUGCUCUCAGAGCUCGAGAACAUCUUCGGAUGCAGAGGAGGCAGGCAUCGGUGGCGCGAUAGCGCCAACGUCCUCAACCUCCACUGCAUCCCACCACAUGAUGAUGCUUGAAGAGCCUUGGUUUUUUG the “polymerase ribozyme fitness (log ratio)” value was -0.811.
With GACCAAUCUGCUCUCAGAGCUCGAGAACAUCUUCGGAUGCAGAGGAGGCAUGCUUCGGUGGCGCGAUAGCGCAAACGUCCUCAACCUCCAAAGCAUCCCACCACAUGAUGAUUCCGGAAGAGCCUUGGUUUUUUG the “polymerase ribozyme fitness (log ratio)” value was -7.04.
In the case of GACCAAUCUGCUCACAGAGCUCGAGAACAUCUUCGGAUGCAGAGGAGGCAGGCUUCGGUGGCGCGAUAGCGCCAACGUCCUCAACCUGCAAUGCAUCCCACCACAUGAUGAUGCCUGAAGAGCCUUGGUUUUUUG, the “polymerase ribozyme fitness (log ratio)” value is reported as -1.12.
For GACCAAUCUGCCAUCAGAGCUCGAGAACAUCUUCGGAUGCAGAGGAGGCAGGCUUCGGUGGCGCGAUAGCGCCAACGUCCUCAACCUCCAAUGCAUCCCACCACAUGAUGAUGCCUGAAGAGCCUUGGUUUUUUG, the “polymerase ribozyme fitness (log ratio)” value was -1.61.
In the case of GACCAAUCUGCUCUCAGAGCUCGAGAACAUCUUCGGAUGCAGAGGAGGCAGGCUUCGGUGGCGCGAUAGCGCCAACGUCCUCAACCUCCAAUGCAUCCCACCACAUGAUGAUGCCUGAAGAGCCUUGGUUUAUUG, the “polymerase ribozyme fitness (log ratio)” value is reported as 0.262.
In the case of GACCAAUCUGCUCUCAGAGCUCGAGAACAUCUUCGGAUGCAGAGGAUGCAGGCUUCGGUGGCGCGAUAGCGCCAACGUCCUCAAUCUCCAAUGCAUCCCACCACAUGAUGAUGCCUGAAGAGCCUUGGGUUUUUG, the “polymerase ribozyme fitness (log ratio)” value is reported as -3.07.
In the case of GACCAAUCUGCUCACAGAGCUCGAGAACAUCUUCGGAUGCAGAGGAGGCAGGCUUCGGUGGCGUGAUAGCGCCAACGUCCUCAACCUCCAAUGCAUCCCACCACAUGAUUAUACCUGAAGAGCCUUGGUCUUUUG, the “polymerase ribozyme fitness (log ratio)” value is reported as -4.16.
With GACCAAUCUGCUCUCAGAGCUCGAGAACAUCUUCGGAUGCAGAGGAGGCAGGCUUCGGUCGCGCGAUAGCGCCAACGUCCUCAACCUCCAAUGCAUCCCACCACAUGAUGAGGCCUGAAGAGCCUUGGUUUUUUG the “polymerase ribozyme fitness (log ratio)” value was 0.137.
With GACCAAUCUGCUCUCAGAGCUCGAGAACAUCUUCGGAUGCAGAGGAGGCAGGCUUCGGUGGCGCGAUAGCGCCAACGACCUCAACCUCCAAUGCAUCCCACCACAUGUUGAUGCCUGAACAGCCUUGGUUUUUUG the “polymerase ribozyme fitness (log ratio)” value was -5.26.
In the case of GACCAAUCUGCUCUCAGAGCUCGAGAACAUCUUCGGAUGCAGAGGAGGCAAGCUUCGGUGGCGCGAUAGCGCCAACGCCCUCAACCUCCAAUGCAUCCCACCACAUGAUGAUGCCUGAAGAGCCUUGGUUUUUUG, the “polymerase ribozyme fitness (log ratio)” value is reported as -2.26.
In the case of GACCAAUCUGCUCUCAGAGCUCGAGAACAUCUUCGGAUGCAGAGGAGACAGGCUUCGGUGGCGCGAUAGCGCCAACGUCCUCAACCUCCAAUGCAUCCCACCACAUGAUGAUGCGUGAAGAGCCUUGGAUUUUUU, the “polymerase ribozyme fitness (log ratio)” value is reported as -2.25.
For GACCAAUCUGCCAUCUGAGCUCGAGAACAUCUUCGGAUGCAGAGGAGGCAGGCUUCGGUGGCGCGAUAGCGCCAACGUCCUCAACCUCCAAUGCAUCCCACCACAUGAUGAUGCCUUAAGAGCCUUGGUUUUUUG, the “polymerase ribozyme fitness (log ratio)” value was -4.37.
For GACCAAUCUGCCAUCUGAGCUCGAGAACAUCUUCGGAUGCAGAGGAGGCAGGCUUCGGUGGCGCGAUAGCGCCAACGUCCUCAACCUCCAAUGCAUCCCACCACAUGAUGAUGCCUGAACAGCCUUGGUUUUUUG, the “polymerase ribozyme fitness (log ratio)” value was -0.322.
For GACCAAUCUGCUCUCAGAGCUCGAGAACAUCUUCGGAUGCAGAGAAGACAGGCUUCGGUGGCGCGAUAGCGCCAACGUCCUCAACCUCCAAUGCAUCCCACCACAUGAUGAUGCCUGAAGAGCCUUGGUUUUUUG, the “polymerase ribozyme fitness (log ratio)” value was -0.563.
For GACCAAUCUGCUCUCAGAGCUCGAGAACAUCUUCGGAUGCAGAGGAGGCAGGCAUCGGUGGCGCGAUAGCGCCAACGUCCUCAACCUCCAAUGCAUCCCACCACAUGAUGAUGCCUGAAGAGCCUUGGUUUUUUG, the “polymerase ribozyme fitness (log ratio)” value was 0.369.
For GACCAAUCUGCUCUCAGAGCUCGAGAACAUCUUCGGAUUCAGAGGAGGCAGGCUUCGGUGGCUCGAUAGCGCCAACCUCCUCAACCUCCAAUGCAUCCCACCACAUGAUGAUGCCUGAAGAGCCUUGGUUUUUUG, the “polymerase ribozyme fitness (log ratio)” value was -3.85.
For GACCAAUCUGCUCUCAGAGCUCGAGAACAUCUGCGGAUGCAGAGGAGGCAGGCUUCGGUGGCGCGAUAGCGCCAACGUCCUCAACCUCCAAUGCAUCCCACCACUUGAUGAGGCCUGAAGAGCCAUGGUUUUUUG, the “polymerase ribozyme fitness (log ratio)” value was -7.
In the case of GACCAAUCUGCUCUCAGAGCUCGAGAACAUCCUCGGAUGCAGAGGAGGCAGGCUUCGGUGGCGCGAUAGCGCCAACGUCCACAACCUCCAAUGCAUCCCACCACAUGAUGAAGCCUGAAGAGCCUUGGUUUUUUG, the “polymerase ribozyme fitness (log ratio)” value is reported as 0.32.
For GACCAAUCUGCUCUCAGAGCUCGAGAACAUCUUCGGAUGCAGAGGAGGCAGGCUUCGGUGGCUCGAUAGCGCCAACGUCCUCAACCUCCAAUGCAUCCCACCACAUGAUGAUGCCUGAAGAGCCUUGGUUUUUUG, the “polymerase ribozyme fitness (log ratio)” value was -0.968.
In the case of GACCAAUCUGCUCUCAGAGCUCGAGAACAUCUUCGGAUGCAGAGGAGGCAGGCUUCGGUGGCGCGAUAGCGCCAACGUCCUCAACCUCCAAUGCAUCCCACCACAUGAUGAGGCCUGAAGAGCCUUGGUUUUUUG, the “polymerase ribozyme fitness (log ratio)” value is reported as 0.735.
For GACCAAUCUGCUCUCAGAGCUCGAGAACAUCUUCGGAUGCAGAGGAGGCAGGCUUCGGUGGCGCGAUAGCGCCAACGUCCUCAACCUCCAAUGCAGCCCACCACAUGAUGAUGCCUGAAGAGCCUUGCUUUUUUG, the “polymerase ribozyme fitness (log ratio)” value was -2.88.
For GACCAAUCUGCUCUCAGAGCUCGAGAACAUCUUCGGAUGCAGAGGAGGCAGGCUUCGGUGGCGCGAUAGCGCCAACGUCCUCAACCUCCAAUGCAUCCCACCACAUGAUGAUGCCUGAAUAGCCUUGGUUUUUUG, the “polymerase ribozyme fitness (log ratio)” value was 2.06.
In the case of GACCAAUCUGCUCUCAGAGCUCGAGAACAUCUUCGGAUGCAUAGGAGGCAGGCUUCGGUGGCGCGAUAGCGCCAACUUCCUCAACCUCCAAUGCAUCCCACCACAUGAUGAUGCCUUAAGAGCCUCGGUUUUUUG, the “polymerase ribozyme fitness (log ratio)” value is reported as -1.93.
In the case of GACCAAUCUGCUCUCAGAGCUCGAGAACAUCUUCGGAUGCAGAGGAGUCAGGCUUCGGUGGCGCGAUAGCGCCAACGUCCUCAACCUCCAAUGCAUCCCACCACAUGAUGCUGCCUGAAGAGCCUUGGUUUUUUG, the “polymerase ribozyme fitness (log ratio)” value is reported as -0.108.
With GACCAAUCUGCUCUCAGAGCUCGAGAACAUCUUCGGAUGCAGAGGAAGCAGGCUUCGGUGGCGCGAUAGCGCCAACGUCCUCAACCUCCAAUGCAUCCCACAACAUGAUGAUGCCUGAAGAGCCUUGGUUUUUUG the “polymerase ribozyme fitness (log ratio)” value was -2.63.
For GACCAAUCUGCCAUCUGAGCUCGAGAACAUCUUCGGAUGCAGAGGAGGCAGGCUUCGGUUGCGCGAUAGCGCCAACGUCCUCAACCUUCAAUGCAUCCCACCACAUGAUGAUGCCUGAAGGGCCUUGGUUUUUUG, the “polymerase ribozyme fitness (log ratio)” value was 1.33.
With GACCAAUCUGCUCUCAGAGCUCGAGAACAUCUUCGGAUGCAGAGGAGGCAGGCUUCGGUGGCGCGAUAGCACCAACGUCCUCAACCUCCAAUGCAUCCCACCACAUGAUGAUGCCUGAAGAGCCUUGGUUUUUUG the “polymerase ribozyme fitness (log ratio)” value was -0.123.
